Assay results from publication PMC7591920, “A protein tertiary structure mimetic modulator of the Hippo signalling pathway” (Nature Communications, 2020).

Key:
[1] = biological target: GST-hTEAD1(209–426) (human) (UniProt P28347); assay: not stated; values of Supplementary Table 1; the method is not given
[2] = biological target: mouse TEAD4(210–427), as purified (SPR) (mouse) (UniProt Q62296); assay: as above
Chain of mouse TEAD4(210–427), as purified (SPR) (mouse) (Q62296 210-427): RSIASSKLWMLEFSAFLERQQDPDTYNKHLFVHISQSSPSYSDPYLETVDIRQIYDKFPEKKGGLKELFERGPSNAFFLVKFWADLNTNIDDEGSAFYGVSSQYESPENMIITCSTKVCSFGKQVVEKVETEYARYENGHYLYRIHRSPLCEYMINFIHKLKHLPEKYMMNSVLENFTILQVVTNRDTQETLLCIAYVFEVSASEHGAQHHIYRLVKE

VGL4 two-helix motif peptide with K250 varied to alanine (from UniProt Q80V24 203-256)
Kd [1]: 17 µM
Kd [2]: 12 µM
